# Experimental data reported in publication PMC3729259 (The Prostate, 2010).
# B1: VP16-AR fusion protein (receptor, UniProt P10275 1-920, looked up)
# chain: MEVQLGLGRVYPRPPSKTYRGAFQNLFQSVREVIQNPGPRHPEAASAAPPGASLLLLQQQQQQQQQQQQQQQQQQQQQQQETSPRQQQQQQGEDGSPQAHRRGPTGYLVLDEEQQPSQPQSALECHPERGCVPEPGAAVAASKGLPQQLPAPPDEDDSAAPSTLSLLGPTFPGLSSCSADLKDILSEASTMQLLQQQQQEAVSEGSSSGRAREASGAPTSSKDNYLGGTSTISDNAKELCKAVSVSMGLGVEALEHLSPGEQLRGDCMYAPLLGVPPAVRPTPCAPLAECKGSLLDDSAGKSTEDTAEYSPFKGGYTKGLEGESLGCSGSAAAGSSGTLELPSTLSLYKSGALDEAAAYQSRDYYNFPLALAGPPPPPPPPHPHARIKLENPLDYGSAWAAAAAQCRYGDLASLHGAGAAGPGSGSPSAAASSSWHTLFTAEEGQLYGPCGGGGGGGGGGGGGGGGGGGGGGGEAGAVAPYGYTRPPQGLAGQESDFTAPDVWYPGGMVSRVPYPSPTCVKSEMGPWMDSYSGPYGDMRLETARDHVLPIDYYFPPQKTCLICGDEASGCHYGALTCGSCKVFFKRAAEGKQKYLCASRNDCTIDKFRRKNCPSCRLRKCYEAGMTLGARKLKKLGNLKLQEEGEASSTTSPTEETTQKLTVSHIEGYECQPIFLNVLEAIEPGVVCAGHDNNQPDSFAALLSSLNELGERQLVHVVKWAKALPGFRNLHVDDQMAVIQYSWMGLMVFAMGWRSFTNVNSRMLYFAPDLVFNEYRMHKSRMYSQCVRMRHLSQEFGWLQITPQEFLCMKALLLFSIIPVDGLKNQKFFDELRMNYIKELDRIIACKRKNPTSCSRRFYQLTKLLDSVQPIARELHQFTFDLLIKSHMVSVDFPEMMAEIISVQVPKILSGKVKPIYFHTQ
# Molecular target: Gal4-PAX6 fusion protein (human, UniProt P26367 1-422)
# Assay: two-hybrid
# Chain of Gal4-PAX6 fusion protein (P26367 whole entry, the tested form may be a part): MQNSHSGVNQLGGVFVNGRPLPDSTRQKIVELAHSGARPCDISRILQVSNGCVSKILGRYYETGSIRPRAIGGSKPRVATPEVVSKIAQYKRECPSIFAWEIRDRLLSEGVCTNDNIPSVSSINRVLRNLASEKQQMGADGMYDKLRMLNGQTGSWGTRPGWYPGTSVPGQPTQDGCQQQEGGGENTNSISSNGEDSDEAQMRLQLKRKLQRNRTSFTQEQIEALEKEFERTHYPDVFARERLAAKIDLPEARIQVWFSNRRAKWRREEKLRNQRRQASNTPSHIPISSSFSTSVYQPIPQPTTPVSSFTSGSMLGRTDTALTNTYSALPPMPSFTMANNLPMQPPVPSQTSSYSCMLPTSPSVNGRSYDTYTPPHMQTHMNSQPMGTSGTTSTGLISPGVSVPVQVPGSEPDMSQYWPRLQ
binder,measurement,value
B1,fold luciferase activity (against cells with pGal4 and pVP16),4 fold
